The numbers were not newly measured in patent US20200378979, which cites them from elsewhere.

Broadly, the Kd is the free concentration of one partner at which half of the binding sites on the other are occupied at equilibrium, for simple one-to-one binding.

Data set [1] deals with T1, thrombin (cited work) (UniProt P00734+P00734). The experiment in a line: ITC. Particulars: CITED Pagano et al. 2008.
Data set [2] concerns the target T1, thrombin (cited work). Nature of the data set: FP. Particulars: 5'-FAM; CITED Van Riesen et al. 2018.

Take GGTTGGTGTGGTTGG [native TBA]: the dissociation constant (Kd) in data set [1] is 330 nM.

As for GGTTGGTGTGGTTGG [5'-FAM-TBA], in data set [2], the Kd was 4900 nM.
